# Results published in PMC6692557.
# Molecular target: HgdA (All5345), putative nucleoside-diphosphate-sugar epimerase / UDP-galactose 4-epimerase of Anabaena sp. PCC 7120 (Anabaena sp. PCC 7120)
# Assay: SEC; Superdex 75 10/300 on an ÄKTA system, Tris buffer (20 mmol/L Tris, 200 mmol/L NaCl, pH 7.5); masses calibrated with standard proteins (Gel Filtration LMW Calibration Kit)
substance,measurement,value
"HgdA (All5345), putative nucleoside-diphosphate-sugar epimerase / UDP-galactose 4-epimerase of Anabaena sp. PCC 7120 (enzyme)",stoichiometry N,2
